A short description of data set [1]: Absorption maximum of the MC state. Format: physicochemical. The source says:
The family of Ca^2+-optical switch described in this invention has built-in design features that can be used to tune the maximum of the action spectrum for the MC-SP transition. The nitro group generates a weakly fluorescent MC state, which can be used to quantify the kinetics of Ca^2+-perturbations and to image the distribution of the MC state within living cells.
The absorption properties of the MC state of the Ca^2+ switch can be tuned using different 1-nitroso-2-naphthol. […] We will investigate the photophysics of optimized Ca^2+ switches based on spironaphthoxazine. We anticipate, based on our observations of the thermally-induced MC to SP transition that the rate of photochemistry for the spironaphthoxazine will be faster that the 11 μs reported for the spirobenzopyran group (Gorner, 2001).

A short description of data set [2]: Thermally driven MC to SP transition, decrease of MC absorption in the dark. In kind it is physicochemical. The procedure: FIG. 7. (A), Time dependent absorption spectra of the lowest energy transition of the MC state of compound 12 dissolved in ethanol at a concentration of 20 μM at 20° in the dark—the spectra, from top to bottom, were recorded at the following times: a) 0; b), 60 s, c), 120 s; d), 180 s; e), 240 s; f), 360 s; g), 420 s; h), 480 s. The lowermost curve is the absorption spectrum of the non-irradiated SP state. (B), The rate for the thermally driven MC to SP transition was determined by analyzing the log of the maximum absorption value for each spectrum shown in FIG. 7A as a function of time. The reaction rate of […] was calculated using a least squares fitting procedure. (C), Absorption spectra of the MC-G-actin conjugate (compound 9) as a function of time in the dark. Spectra are as follows: a), before irradiation; b), after 30 second irradiation with 365 nm light; c), after 5 minutes in the dark at 20°; d), after 22 minutes in the dark at 20°; e) after irradiation with 546 nm light for 30 seconds
Thermally-driven transitions between MC and SP. The rate for the thermal equilibration of MC to SP in ethanol was measured using the decrease in the maximum MC absorption value as a function of time in the dark (FIGS. 7A,B). […] This rate, however, is too fast for many of the envisioned applications of optical switches in biology. […]

In data set [3] the target is barbed-end of the actin filament. Conditions: Ca^2+-dependent; Southwick & DiNubile, 1986; read-out: kd for binding to the barbed-end of the actin filament; cited from earlier work.
Data set [4] concerns the target T1, G-actin (Oryctolagus cuniculus, UniProt P68135). Description: Prodan-actin polymerization kinetics. Format: biochemical, Rabbit. Also on record: Rabbit muscle G-actin is purified according to Marriott (1994); from tissue; host or cells: rabbit muscle. The procedure: (§1) FIG. 20: Caging of CapG (A): Absorption spectra of […] samples of CapG (2), caged CapG (curve 1).
(§2) Preparation and characterization of caged CapG: Caged CapG was prepared using a modification of our published method for caging actin and profilin (Marriott, 1994; Marriott et al, 2003). In brief a purified solution of CapG (1 mg/ml) was dialyzed against 20 mM borate buffer, pH 8.5 overnight. The protein was centrifuged and the OD280 nm measured to determine the protein concentration (FIG. 8A). A 0.1 M acetone solution of NVOC-Cl was freshly prepared and added to the CapG with vigorous vortexing to a final concentration of 1 mM. This was usually realized by 2-3 additions over a 5-minute period. After 30 minutes at room temperature in the dark, the protein was centrifuged and dialyzed against 2×500 ml of G-buffer overnight. The absorption spectrum of the protein was recorded using the dialysis buffer as a reference and the amount of NVOC was determined by measuring the A350nm (E350nm=5,000 M^−1cm^−1). The concentration of protein was determined using the Bio-Rad Bradford assay. The introduction of 3-4 NVOC groups was sufficient to inhibit the formation of G-actin-CapG using two independent assays based on sensitivity of Prodan-actin to CapG binding. In FIG. 20B, CapG binding to Prodan-G-actin is seen to shift the emission spectrum, from 496 nm to 465 nm, and is accompanied by a 1.5 fold (FIG. 20B, curve 1)—this signal can be used to analyze the effects of CapG on actin polymerization kinetics as shown in FIG. 20C.

For data set [5], the target named is T1, G-actin. Description: CapG binding to Prodan-G-actin (fluorescence). The arrangement: Rabbit muscle G-actin is purified according to Marriott (1994); from tissue; host or cells: rabbit muscle; species or system Rabbit. The procedure: as §1
as §2, with “In FIG. 20B, CapG binding to Prodan-G-actin is seen to shift the emission spectrum, from 496 nm to 465 nm, and is accompanied by a 1.5 fold (FIG. 20B, curve 1)—this signal can be used to analyze the effects of CapG on actin polymerization kinetics as shown in FIG. 20C.” left out

The source of these data is US20090280060A1, “PHOTOCHROMIC PROBES” (priority 2004, published 2009).

Like-named read-outs stand apart in the source and are kept apart here.

Turning to `CN1c2cc(CBr)ccc2C(C)(C)C12C=Nc1c(ccc3ccccc13)O2` (centres unmarked) [Compound 17, 6′-(Bromomethyl)spironaphthoxazin], in data set [1], the “MC state absorption maximum” value is reported as “about 620 nm”. Moreover, the “thermal reversion to the SP state” value in data set [2] is “within seconds”.

B1: CapG: 40 kD, Ca^2+ regulated actin filament barbed-end capping protein, His-tagged, cloned from mouse cDNA library (protein, UniProt P24452 1-352, looked up)
Macrophage-capping protein: MYTPIPQSGSPFPASVQDPGLHIWRVEKLKPVPIARESHGIFFSGDSYLVLHNGPEEASHLHLWIGQQSSRDEQGACAVLAVHLNTLLGERPVQHREVQGNESDLFMSYFPRGLKYYREGGVESAFHKTTSGARGAAIRKLYQVKGKKNIRATERPLSWDSFNTGDCFILDLGQNIFAWCGGKSNILERNKARDLALAIRDSERQGKAQVEIITDGEEPAEMIQVLGPKPALKEGNPEEDITADQTRPNAQAAALYKVSDATGQMNLTKVADSSPFASELLIPDDCFVLDNGLCAQIYIWKGRKANEKERQAALQVADGFISRMRYSPNTQVEILPQGRESPIFKQFFKNWK
modifications: His tag
notes: 40 kD, Ca^2+ regulated actin filament barbed-end capping protein, His-tagged, cloned from mouse cDNA library
As for B1, the Kd in data set [3] is 1000 nM; in the data set with G-actin [5] (data not shown, read-out: kd of complex with G-actin), 100 nM. Besides, the “effect on actin polymerization” value with G-actin [4] is given as “inhibits the polymerization of G-actin”.

B2: caged CapG: CapG labeled with 3-4 NVOC groups using NVOC-Cl (protein, UniProt P24452 1-352, looked up)
Macrophage-capping protein: MYTPIPQSGSPFPASVQDPGLHIWRVEKLKPVPIARESHGIFFSGDSYLVLHNGPEEASHLHLWIGQQSSRDEQGACAVLAVHLNTLLGERPVQHREVQGNESDLFMSYFPRGLKYYREGGVESAFHKTTSGARGAAIRKLYQVKGKKNIRATERPLSWDSFNTGDCFILDLGQNIFAWCGGKSNILERNKARDLALAIRDSERQGKAQVEIITDGEEPAEMIQVLGPKPALKEGNPEEDITADQTRPNAQAAALYKVSDATGQMNLTKVADSSPFASELLIPDDCFVLDNGLCAQIYIWKGRKANEKERQAALQVADGFISRMRYSPNTQVEILPQGRESPIFKQFFKNWK
modifications: caged with 3-4 NVOC groups
notes: CapG labeled with 3-4 NVOC groups using NVOC-Cl
For B2, the “effect on actin polymerization” value is “limited effect on the rate of actin polymerization” with G-actin [4] and “almost normal polymerization kinetics” with G-actin [4] (listed as Caged CapG). For the same molecule, the “binding to G-actin” value with G-actin [5] (Prodan-G-actin) is “binds poorly to G-actin”.
